From paper PMC7279388

Target: p65 (UniProt Q04206)
Test: anti-FLAG co-IP, anti-p65 blot
Settings: reference: Flag-WT, IL-1β treated; sites S15

binding against the reference: weaker
Substance: PRMT5 (from UniProt O14744) Flag-S15A, IL-1β treated
